B1: nanobody CA9865 (VHH)
VHH: QVQLVESGGGLVQAGGSLRLSCAPSGRTSSTYTMGWFRQAPGKEREFVAAISWTGTPYYADSVKGRFTISRDNAKNTVYLQMNSLKPEDTAVYYCAAARPGLFIFVSDYARTAKYDYWGQGTQVTVPP
notes: the nanobody part of PMb65, whose structure is deposited as PDB 8G8W; phage display library in the pMESy4 vector; also called nanobody 65
B2: nanobody CA9871 (VHH)
VHH: QVQLVESGGGLVQAGDSLRLSCAASGLTLKNYAMGWFRQAPGKEHEFVAVISWSGSGTSYADSVEGRFTISRDNAKNTAFLQMSSLKPEDTAVYYCAARDGGYGSRWPDEYTYWGQGTQVTVPP
notes: the nanobody part of PMb71, whose structure is deposited as PDB 8G8W; phage display library in the pMESy4 vector; also called nanobody 71
B3: human uncoupling protein 1 (UCP1) (natural protein, UniProt P25874 2-307, looked up)
chain: GGLTASDVHPTLGVQLFSAGIAACLADVITFPLDTAKVRLQVQGECPTSSVIRYKGVLGTITAVVKTEGRMKLYSGLPAGLQRQISSASLRIGLYDTVQEFLTAGKETAPSLGSKILAGLTTGGVAVFIGQPTEVVKVRLQAQSHLHGIKPRYTGTYNAYRIIATTEGLTGLWKGTTPNLMRSVIINCTELVTYDLMKEAFVKNNILADDVPCHLVSALIAGFCATAMSSPVDVVKTRFINSPPGQYKSVPNCAMKVFTNEGPTAFFKGLVPSFLRLGSWNVIMFVCFEQLKRELSKSRQTMDCAT
notes: wild-type human UCP1, UniProt P25874; the forward primer joins the His8 tag and Factor Xa site to codon 2 of UCP1, the reverse primer runs to the stop codon; also called SLC25A7; not shown: His8, N-terminal, cleaved

Columns and labels:
Details in all cases: both partners purified
[1] = biological target: B3; assay: thermostability shift assay (cysteine-reactive probe CPM); 5 μg purified human UCP1 with an equimolar amount of nanobody, with or without 1 mM GTP, 1 hour at 4°C; 25° to 90°C at 5.6°C/min
[2] = biological target: T1, Pro-macrobody PMb65 (nanobody CA9865 fused with maltose-binding protein via a Pro-Pro linker) (llama (Lama glama) | ); assay: cryo-EM structure; purified UCP1, PMb65 and PMb71 mixed stoichiometrically, overnight at 4°C, with 2 mM GTP and 2 mM D-maltose; 20 mM MES pH 6.0, 150 mM NaCl, 0.02% decyl maltose neopentyl glycol
T1 construct: nanobody CA9865; the structure with PMb65 is deposited as PDB 8G8W (only regions of PMb65 are modelled); Pro-Pro linker between nanobody and MBP; parts of it are removed from the deposited model; also called cytoplasmic Pro-macrobody; source: E. coli MC1061, purified (Ni-NTA, 3C cleavage, Strep-Tactin XT); not shown: MBP with deca-His tag, N-terminal, cleaved

[3] = biological target: T2, Pro-macrobody PMb71 (nanobody CA9871 fused with maltose-binding protein via a Pro-Pro linker) (llama (Lama glama) | ); assay: as above
T2 construct: nanobody CA9871; the structure with PMb71 is deposited as PDB 8G8W; Pro-Pro linker between nanobody and MBP; also called matrix Pro-macrobody; source: E. coli MC1061, purified (Ni-NTA, 3C cleavage, Strep-Tactin XT); not shown: MBP with deca-His tag, N-terminal, cleaved

| Binder | thermal stabilisation (shift of Tm) [1] | binding result [2] | binding result [3] |
| --- | --- | --- | --- |
| B1 | 5 °C |  |  |
| B2 | 0.8 °C |  |  |
| B3 |  | binds | binds |
